Data on one molecule can be found in patent US20180311326A1 (FRAUNHOFER GESELLSCHAFT ZUR FOERDERUNG DER ANGEWANDTEN …, published 2018).

This experiment has as its target T1, AMA1_GKO-HC2.2.
T1 construct: PfAMA1_GKO fused to human IgG1 constant region with K392D and K409D already in the entry; also called AMA1GKO-modHC2_K392D-K409D; PfAMA1_GKO-HC2.2-ER
In words: co-expression in N. benthamiana, SDS-PAGE under reducing and non-reducing conditions.

B1: MSP119_3D7-HC1.2-ER (Fc fusion)
chain: ISQHQCVKKQCPENSGCFRHLDEREECKCLLNYKQEGDKCVENPNPTCNENNGGCDADATCTEEDSGSSRKKITCECTKPDSYPLFDGIFCSSSNAAAKGPSVFPLAPSSKSTSGGTAALGCLVKDYFPEPVTVSWNSGALTSGVHTFPAVLQSSGLYSLSSVVTVPSSSLGTQTYICNVNHKPSNTKVDKKVEPKSCDKTHTCPPCPAPELLGGPSVFLFPPKPKDTLMISRTPEVTCVVVDVSHEDPEVKFNWYVDGVEVHNAKTKPREEQYNSTYRVVSVLTVLHQDWLNGKEYKCKVSNKAFPAPIEKTISKAKGQPREPQVYTLPPSRDKLTKNQVSLTCLVKGFYPSDIAVEWESNGQPENNYKTTPPVLKSDGSFFLYSKLTVDKSRWQQGNVFSCSVMHEALHNHYTQKSLSLSPGKSEKDEL
notes: PfMSP119 (3D7) fused to human IgG1 constant region with E356K and D399K already in the entry; also called MSP119-modHC1_E356K-D399K; PfMSP119_3D7-HC1.2-ER
Consider B1, for which the binding result was “binds”.
